Key:
[1] = tested on: NIH-3T3 mouse embryonic fibroblast cells; test: IL-6 secretion by NIH-3T3 fibroblasts (Elisa); assay type: cell-based; conditions: NIH-3T3 cells, 50 ng/ml, vs control / IL-17 group
Protocol: FIG. 2: NIH-3T3 mouse embryonic fibroblast cells were treated with IL-17 vehicle (Ctrl), IL-17 (50 ng/ml) alone (IL-17) or peptide (FM-0410) (50 ng/ml) and supernatants were assayed by Elisa for IL-6. Data were expressed as pg/ml and presented as means±S.D. of three separate independent experiments. Statistical analysis was conducted by one-way ANOVA followed by Bonferroni's for multiple comparisons. ^##P≤0.01, ^###P≤0.005 vs Ctrl group; *P≤0.05 vs IL-17 group. In order to assess the biological activity of synthesized peptide, we carried out in vitro studies using NIH-3T3 mouse embryonic fibroblast cells. […] With this in vitro system we measured IL-17 activity by its ability to induce IL-6 secretion by NIH-3T3 mouse embryonic fibroblast cells. Methods: The levels of IL-6 in the cellular and air pouch inflammatory supernatants at 24 h were measured using commercially available enzyme-linked immunosorbent assay kit (ELISA kit, R&D System, Milan, Italy) according to the manufacturer instructions. […] The addition of 100 μl of the substrate and stop solution represented the last steps before the reading of absorbance (measured at 450 nm) on a microplate reader. Antigen levels in the samples were determined using a standard curve and expressed as pg/ml. […]

[2] = tested on: hPBMC on cytokine-stimulated HDBEC monolayers; test: Human PBMC static adhesion / transendothelial migration assay; assay type: cell-based; conditions: co-treatment plus TNF-α
Protocol: FIG. 10: Human dermal blood endothelial cells (HDBEC) were treated with: IL-17 vehicle (Ctrl), IL-17 or FM-0410 (100 ng/ml), alone or in combination with TNF-α (100 U/ml) for 24 h. Cells were washed, gated in their totality and singlet before the identification of IL-17Rs (RA and RC) (A, B), ICAM (C) and VCAM (D) expression. Histogram values (expressed as MIF) indicate the total positive cells (A-D). In (E) are shown phase-contrast micrographs of confluent monolayers of untreated or treated (as reported before) HDBEC. Total adhesion (expressed as INT/mm^2, F) and % of transmigration (G) are calculated with Image Pro programme (DataCell, Finchampstead). Inflammatory supernatants from all experimental conditions were assayed by Elisa for IL-6 (H) expressed in pg/ml. Data were presented as means±S.D. of n=3 healthy donors. […]
Human PBMC transendothelial migration assay: Prior to beginning the assay, HDBEC monolayers were washed with 37° C. medium 199 (Thermo Fisher Scientific) supplemented with 0.15% w/v BSA (MilliporeSigma) to remove any residual cytokines. hPBMC (1×10^6) were co-cultured with cytokine-stimulated HDBEC monolayers at 37° C. for 20 min. […] Total hPBMC adhesion and mean percentage transmigration were calculated for each well.

dorsal air pouch of mice = conditions: single administration 1 μg/pouch into 6-day old air pouch; previous studies; cited from earlier work
IL-17RA = IL-17RA (Homo sapiens, UniProt Q96F46); conditions: cited from earlier work

B1: IL-17: recombinant mouse IL-17 purchased from R&D System; full-length cytokine used as comparator and stimulus (protein, UniProt Q62386 26-158, looked up)
Interleukin-17A: AAIIPQSSACPNTEAKDFLQNVKVNLKVFNSLGAKVSSRRPSDYLNRSTSPWTLHRNEDPDRYPSVIWEAQCRHQRCVNAEGKLDHHMNSVLIQQEILVLKREPESCPFTFRVEKMLVGVGCTCVASIVRQAA
- IL-6 release [1]: significant increase in IL-6 release compared to control group
- total number of adhered hPBMC [2]: significant increase
- transmigrated hPBMC [2]: significant increase
- time of peak of leukocyte infiltration (dorsal air pouch of mice): 24 h
- affinity of IL-17RA for IL-17A compared to IL-17F (IL-17RA): ~100 fold

Source: patent US20260035452A1 (THE UNIVERSITY OF BIRMINGHAM, priority 2022, published 2026)
